From patent publication US20090170069, “Cell free methods for detecting protein-ligand binding” (The Arizona Board of Regents on behalf of the University of …, published 2009)

What was measured:
[1] = target: CFluc-E2C (six-finger zinc finger E2C) (synthetic); experiment: with Pum2-Aart hairpin-guide and 1 nM target ssRNA or ssDNA; G to T target mutation gives background; details: tags: N-terminal CFluc(398-550) split luciferase fragment; hairpin with ssDNA guide tail
[2] = target: CFluc-E2C (six-finger zinc finger E2C) (synthetic); experiment: with VEGF81-99-Aart hairpin-guide and 1 nM VEGF transcript; details: tags: N-terminal CFluc(398-550) split luciferase fragment; hairpin with ssDNA guide tail
[3] = target: Aart-NFluc (six-finger zinc finger Aart) (synthetic); experiment: with Pum1-E2C hairpin-guide and 1 nM target ssRNA or ssDNA; G to T target mutation gives background; details: tags: N-terminal His tag, C-terminal NFluc(2-416) split luciferase fragment; hairpin with ssDNA guide tail
[4] = target: Aart-NFluc (six-finger zinc finger Aart) (synthetic); experiment: competition; competes with E2C-1-Aart in split-luciferase assay with CFluc-E2C; IC50 only in figure; reference hairpin; details: tags: N-terminal His tag, C-terminal NFluc(2-416) split luciferase fragment
[5] = target: Aart-NFluc (six-finger zinc finger Aart) (synthetic); experiment: competition; single A to T bp substitution in finger 3 triplet; details: tags: N-terminal His tag, C-terminal NFluc(2-416) split luciferase fragment; hairpin
[6] = target: CFluc-E2C (six-finger zinc finger E2C) (synthetic); experiment: with HER2 122-140-Aart hairpin-guide and 1 nM HER2 transcript; details: tags: N-terminal CFluc(398-550) split luciferase fragment; hairpin with ssDNA guide tail
[7] = target: Aart-NFluc (six-finger zinc finger Aart) (synthetic); experiment: with VEGF60-78-E2C hairpin-guide and 1 nM VEGF transcript; details: tags: N-terminal His tag, C-terminal NFluc(2-416) split luciferase fragment; hairpin with ssDNA guide tail
[8] = target: Aart-NFluc (six-finger zinc finger Aart) (synthetic); experiment: with E2C-HER2 100-118 hairpin-guide and 1 nM HER2 transcript; details: tags: N-terminal His tag, C-terminal NFluc(2-416) split luciferase fragment; hairpin with ssDNA guide tail

Chain of CFluc-E2C (six-finger zinc finger E2C) (synthetic) (chain, as listed by the source): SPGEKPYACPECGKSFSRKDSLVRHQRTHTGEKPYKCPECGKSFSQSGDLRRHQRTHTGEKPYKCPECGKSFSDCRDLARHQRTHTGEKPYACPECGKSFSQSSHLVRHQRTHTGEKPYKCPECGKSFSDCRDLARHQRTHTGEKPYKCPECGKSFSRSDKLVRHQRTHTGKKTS
Chain of Aart-NFluc (six-finger zinc finger Aart) (synthetic) (chain, as listed by the source): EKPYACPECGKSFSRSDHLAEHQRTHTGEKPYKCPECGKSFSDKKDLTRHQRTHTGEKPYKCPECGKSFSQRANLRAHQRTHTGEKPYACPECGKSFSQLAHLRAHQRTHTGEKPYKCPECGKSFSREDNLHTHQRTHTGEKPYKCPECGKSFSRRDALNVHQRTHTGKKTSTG

B1: Pum1-E2C hairpin-guide (dsDNA)
DNA: GAGGGGCCGGAGCCGCAGTGCGTCCTCGCACTGCGGCTCCGGCCCCTCAAAACTATATACACCATG
activity [1]: 4.5 fold luminescence over background

B2: VEGF60-78-E2C hairpin-guide (dsDNA)
DNA: GAGGGGCCGGAGCCGCAGTGCGTCCTCGCACTGCGGCTCCGGCCCCTCAAAAGAAGATGTCCACCAGGGTC
activity [2]: 39 fold luminescence

B3: Pum2-Aart hairpin-guide (dsDNA)
DNA: GCCGCTATATCAAAAAACTCCGGGCTTTTCCCTACATGCTCCTGCATGTAGGGAAAAGCCCGGAG
activity [3]: 4.5 fold luminescence over background

B4: Aart competitor hairpin, consensus (dsDNA)
DNA: GCATGTAGGGAAAAGCCCGGCGTCCTCGCCGGGCTTTTCCCTACATGC
binding result [4]: binds

B5: Aart competitor hairpin, consensus ATA (dsDNA)
DNA: GCATGTAGGGAATAGCCCGGCGTCCTCGCCGGGCTATTCCCTACATGC
binding signal [5]: 60 fold reduced vs consensus hairpin

B6: E2C-HER2 100-118 hairpin-guide (dsDNA)
DNA: GAGGGGCCGGAGCCGCAGTGCGTCCTCGCACTGCGGCTCCGGCCCCTCAAAACGGCACAGACAGTGCGCGT
activity [6]: 4.3 fold luminescence over hairpin-guides alone

B7: VEGF81-99-Aart hairpin-guide (dsDNA)
DNA: GATCTCATCAGGGTACTCCAAAACTCCGGGCTTTTCCCTACATGCTCCTGCATGTAGGGAAAAGCCCGGAG
activity [7]: 39 fold luminescence

B8: Aart competitor hairpin, designed ATA (dsDNA)
DNA: GCATGTAGAGAATAACCAGGCGTCCTCGCCTGGTTATTCTCTACATGC
binding signal [5]: 20 fold reduced vs designed hairpin

B9: HER2 122-140-Aart hairpin-guide (dsDNA)
DNA: CCCTTGCAGCGGGCACAGCAAAACTCCGGGCTTTTCCCTACATGCTCCTGCATGTAGGGAAAAGCCCGGAG
activity [8]: 4.3 fold luminescence over hairpin-guides alone
